Usually Km stands for the concentration of substrate that gives half-maximal velocity.

The target in one series is T1, Recombinant tobacco MPO1 (Nicotiana tabacum, UniProt A0A1S4BDC4).
T1 sequence (A0A1S4BDC4 1-790): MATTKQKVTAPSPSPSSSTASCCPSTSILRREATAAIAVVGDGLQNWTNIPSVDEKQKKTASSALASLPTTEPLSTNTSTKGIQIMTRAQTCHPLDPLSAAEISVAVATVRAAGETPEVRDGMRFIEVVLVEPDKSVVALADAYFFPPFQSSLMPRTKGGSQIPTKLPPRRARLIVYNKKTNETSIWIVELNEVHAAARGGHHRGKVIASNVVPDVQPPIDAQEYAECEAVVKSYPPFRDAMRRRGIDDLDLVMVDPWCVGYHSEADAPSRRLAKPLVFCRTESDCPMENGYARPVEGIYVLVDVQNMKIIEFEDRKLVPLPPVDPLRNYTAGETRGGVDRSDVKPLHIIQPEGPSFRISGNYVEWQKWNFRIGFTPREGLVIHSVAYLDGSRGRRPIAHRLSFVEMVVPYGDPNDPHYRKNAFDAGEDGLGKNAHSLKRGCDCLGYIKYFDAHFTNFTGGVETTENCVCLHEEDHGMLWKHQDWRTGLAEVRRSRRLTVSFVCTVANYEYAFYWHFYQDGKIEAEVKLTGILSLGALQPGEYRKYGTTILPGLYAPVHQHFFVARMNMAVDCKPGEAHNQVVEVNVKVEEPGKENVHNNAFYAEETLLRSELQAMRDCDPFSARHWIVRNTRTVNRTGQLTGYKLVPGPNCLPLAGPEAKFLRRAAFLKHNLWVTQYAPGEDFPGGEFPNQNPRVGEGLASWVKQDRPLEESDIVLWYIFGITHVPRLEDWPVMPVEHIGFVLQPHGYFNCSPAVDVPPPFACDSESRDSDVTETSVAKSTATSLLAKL
Conditions: for V/K: substrate of recombinant tobacco MPO1. How it is done:
The PCR product was first cloned into a pGEM-T Easy vector (Promega), then excised as the EcoRV-Not1 fragment, and finally cloned into the expression vector pGEX-6P (GE Healthcare). The resultant plasmid pGEX-MPO1 was introduced into the E. coli strain Rosetta (DE3) (Novagen). The recombinant bacteria were cultured in LB medium containing 50 μg/ml carbenicillin at 37° C. until the OD600 of the culture reached 0.4, IPTG and CuSO4 were added to the culture to the final concentrations of 0.1 mM and 4 mM, respectively, and the cultures were incubated at 16° C. for 16 h. Bacteria were harvested by centrifugation, suspended in a PBS buffer containing 10 mM DTT and 1 mg/ml lysozyme, incubated at 4° C. for 2 h, and then sonicated for 3 min. After centrifugation of the homogenate, the recombinant MPO1 protein fused to GST was purified from the supernatant by GSTrap HP (GE Healthcare) according to the manufacturer's protocol.

Series [1] has as its target T2, Pig kidney diamine oxidase (Sus scrofa, UniProt Q9TRC7).
T2 sequence (Q9TRC7 25-755): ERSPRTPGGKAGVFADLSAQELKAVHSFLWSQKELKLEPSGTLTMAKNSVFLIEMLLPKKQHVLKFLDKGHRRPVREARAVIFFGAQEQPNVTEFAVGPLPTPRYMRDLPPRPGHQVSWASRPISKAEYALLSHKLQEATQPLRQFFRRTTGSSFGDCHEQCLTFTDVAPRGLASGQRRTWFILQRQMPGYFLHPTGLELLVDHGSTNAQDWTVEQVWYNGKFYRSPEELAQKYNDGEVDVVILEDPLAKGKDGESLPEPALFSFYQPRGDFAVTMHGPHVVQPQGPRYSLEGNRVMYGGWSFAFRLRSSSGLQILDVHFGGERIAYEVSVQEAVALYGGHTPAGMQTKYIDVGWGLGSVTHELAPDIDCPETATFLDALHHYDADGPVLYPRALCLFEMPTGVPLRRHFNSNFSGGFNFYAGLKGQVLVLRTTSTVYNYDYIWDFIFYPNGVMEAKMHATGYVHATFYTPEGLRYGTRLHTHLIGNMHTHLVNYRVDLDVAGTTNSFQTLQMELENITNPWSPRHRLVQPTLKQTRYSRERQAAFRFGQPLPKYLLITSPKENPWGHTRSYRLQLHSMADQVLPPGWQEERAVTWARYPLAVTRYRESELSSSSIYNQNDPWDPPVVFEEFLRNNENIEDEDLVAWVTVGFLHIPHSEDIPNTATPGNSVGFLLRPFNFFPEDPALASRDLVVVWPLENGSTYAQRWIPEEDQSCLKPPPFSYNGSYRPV
The following applies: in words.

The next series has as its system NCCCCCN. Kind of series: purified protein, by the assay type. Conditions: other: substrate of recombinant tobacco MPO1 (GST fusion, purified from E. coli).
The test system of a further series is NCCCN. The experiment in a line: purified protein, by the assay type. The following applies: other: substrate of recombinant tobacco MPO1 (GST fusion, purified from E. coli).
Substrate in series [2]: CNCCCCN
The experiment in a line: purified protein, by the assay type. Conditions: other: substrate of purified pig kidney diamine oxidase (Sigma).

Substrate in series [3]: NCCCCCN
The experiment in a line: purified protein, by the assay type. The following applies: other: substrate of purified pig kidney diamine oxidase (Sigma).

Substrate in series [4]: NCCCCN
The experiment in a line: purified protein, by the assay type. The following applies: other: substrate of purified pig kidney diamine oxidase (Sigma).

Turning to `CNCCCN` [N-Methyl-1,3-diaminopropane], the V/K at Recombinant tobacco MPO1 came out at 13000. Take `NCCCCN` [Putrescine]: the V/K on Recombinant tobacco MPO1 is 3600. Moreover, the substrate preference entry in series [1] was “preferred putrescine over N-methylputrescine”. As to `CCCCN` [n-Butylamine], at Recombinant tobacco MPO1 (substrate of recombinant tobacco MPO1 (GST fusion, purified from E. coli)), the Km came to 249 ± 180 µM. For the molecule “Recombinant tobacco MPO1 (Nicotiana tabacum)”, the Michaelis-Menten constant (Km) in the series on NCCCCCN worked out at 362 ± 320 µM; with NCCCN, 158 ± 100 µM.

B1: Pig kidney diamine oxidase (Sus scrofa) (protein)
chain: ERSPRTPGGKAGVFADLSAQELKAVHSFLWSQKELKLEPSGTLTMAKNSVFLIEMLLPKKQHVLKFLDKGHRRPVREARAVIFFGAQEQPNVTEFAVGPLPTPRYMRDLPPRPGHQVSWASRPISKAEYALLSHKLQEATQPLRQFFRRTTGSSFGDCHEQCLTFTDVAPRGLASGQRRTWFILQRQMPGYFLHPTGLELLVDHGSTNAQDWTVEQVWYNGKFYRSPEELAQKYNDGEVDVVILEDPLAKGKDGESLPEPALFSFYQPRGDFAVTMHGPHVVQPQGPRYSLEGNRVMYGGWSFAFRLRSSSGLQILDVHFGGERIAYEVSVQEAVALYGGHTPAGMQTKYIDVGWGLGSVTHELAPDIDCPETATFLDALHHYDADGPVLYPRALCLFEMPTGVPLRRHFNSNFSGGFNFYAGLKGQVLVLRTTSTVYNYDYIWDFIFYPNGVMEAKMHATGYVHATFYTPEGLRYGTRLHTHLIGNMHTHLVNYRVDLDVAGTTNSFQTLQMELENITNPWSPRHRLVQPTLKQTRYSRERQAAFRFGQPLPKYLLITSPKENPWGHTRSYRLQLHSMADQVLPPGWQEERAVTWARYPLAVTRYRESELSSSSIYNQNDPWDPPVVFEEFLRNNENIEDEDLVAWVTVGFLHIPHSEDIPNTATPGNSVGFLLRPFNFFPEDPALASRDLVVVWPLENGSTYAQRWIPEEDQSCLKPPPFSYNGSYRPV
In the case of B1, the results for the Km in series [2], in series [3] and in series [4] were 657 ± 240 µM, 915 ± 420 µM and 228 ± 90 µM, respectively.

The values above are taken from patent US11572568B2, “Regulating alkaloids” (22nd Century Limited, LLC, priority 2006, dated 2023).
